Values quoted from earlier work, collected in PMC5021969.

Molecular target: CXCL1 (Mus musculus) (UniProt P12850)

- Kd: 10 µM
Substance: CXCL1 (from UniProt P12850)
